Assay: soluble on expression in E. coli; label from the status in PepcDB or PDB records

**Q.** For “SLGSVLVDLQIATENIEGLPTEEQIVQWATGAVQPEGNEVEMTVRIVDEAESHELNLTYRGKDRPTNVLSFPFECPDEVELPLLGDLVICRQVVEREASEQEKPLMAHWAHMVVHGSLHLLGYDHIEDDEAEEMESLETQIMQGLGFDDPYLAEK”, which “soluble on expression in E. coli” value is on record?
**A.** soluble

**Q.** For “SLHSMTAFAADEHLTPWGLLACELRSVNHRFLDIVIRLPEELRALESQLRERVAARVSRGKLDLTVRLSPQEIHTGKLVVNELLLSHLSTLALRLSAQFPALRVTFAELLQIPGVLKGEQIDMTTLQGHAVALLDKVLDNFIATREREGLKMQAMIAQRASAIERIVGEVRTLIPTIREGQHNKLNARMNHLSYPVDHGRIEQELVLWLQ”, which “soluble on expression in E. coli” value is on record?
**A.** not soluble

**Q.** With “SLIDMGDYTLKELETWNEKIEGIVNEMGLNYYNQEFEIISYNGMLEAEAYTGMPSRYPHWSYGKAYEKQKTLYGYDLVGLPYEMVINSNPCIAYLMKENTLLLQILTMAHVYGHNDFFKNNRLFREGTDASETVNMFKNDADTIRNYIDNPAIGNEKVEKILDAAHAIRYQTHRVIGEKRLSYEEIRNKIIQDYNSSYKPRSIIEPYEKPVEPDLSKIPLEPEDDIIYFIENYGNLQEWERNVIEIVRRETAYFIPQIETKIMNEGWASFWHYTILNELKLPDGLHLEFLKRHNDVLSPILGSLNPYYLGFKILKDIEDRYGRDKIFEVREIERDESFIRKYLTRELCEELNLFEFSKRRGEYIIDNVADEEGWKNIRNSICSGCGMNSIPVIRVVELSKKDNNLILEHLYDGRELNMQYAEETLKYVVNLWKGKVTLKTTIEGKEYRIVCDENKKICEVK” as the sequence, how does the “soluble on expression in E. coli” value read?
**A.** soluble

**Q.** For “SLKIDTHAHIFLKKLNTVANARYKPDYDASFKDYKANLDHYDFNKGVLVQPSFLGIDNEFLLQSIEKDENIKAIVVVDENIKFDELKKLKERKACGVRLNLIGKELPNFKSMVWTQFFENLSKLKMQIEIQRDLDNNLVDIVENLIPYGCNIVIDHLARANANLTNLEDLICLKNSRIFFKISGFYRAKIDYANNEQAVKFAKKIYEILKEHFPLSNFVFGSDWPHTNFEANINFSSALVAFNEVVVSKKEQEQILGDNACALFGF”, which “soluble on expression in E. coli” value is on record?
**A.** soluble

**Q.** With “SLLLAKHPVISVNGNTAVLVPEETRKLAELVNAKVEINVFHHSPERVEKIKRYLEKHGIEVLAAGDAVLEGLESARRIVDSRGILIADVVLVPLEDGDRCEILKRHGKKVIAIDLNPLSRTARMADITIVDNIIRAFPKMVEMAEEMRKWERERLKEVVENYDNSKVLAEAVEGIIQYLQKVKGELLSP” as the sequence, how does the “soluble on expression in E. coli” value read?
**A.** soluble

**Q.** For “SLLNVPAGKDLPEDIYVVIEIPANADPIKYEIDKESGALFVDRFMSTAMFYPCNYGYINHTLSLDGDPVDVLVPTPYPLQPGSVTRCRPVGVLKMTDEAGEDAKLVAVPHSKLSKEYDHIKDVNDLPELLKAQIAHFFEHYKDLEKGKWVKVEGWENAEAAKAEIVASFERAKNK”, which “soluble on expression in E. coli” value is on record?
**A.** soluble

**Q.** For “SLMHHALHIKNGIVIDPKNGVKAEKMDIFVKNGKIVEESEVKGEDVKVIDANNKLVVAGGVDMHAHIAGSKINTGRTMRPEEMRVVRNIAGKFRAAVGRVLLTSPAIGYEYAKMGYTISIEAAQPPIGSPHTHEELDAIPMIDKAALPVFGNWHFVLKYVAEKDMEKLKAFIAWAIERTKGFGVKVVNPGGVGAWMYGGNVTSLDDQVPGFNVTPREIITSLVKATEELQLNHSVHLHCNRLGVPGNYETTVESIKLVDGIRNDARQVLHVTHVQFNAYAGDSWRTVASGAEAIAKTVNSMDNVTIDMGQPIFGHATAMTGDAPFQFTLHKLTGSRWSNKDSEIEGGAGIVPIAYLPKNPVHALQWAIGLELGLLIDSDKVVLTTDYPNGGPFTEYPYIMAMLMSKKMREGELERVSPFVQKASNLPAIDTEKTLEEVIHMTRSLPARVLGLPQKGHLGVGADADIAIYDLNPLDVDTSNDFEKVYKAFKTAVYTIKDGQILVKDGELVDEYWGRTYWVDATGKADMEAIKDDLNEMFSKYYTVELQNYGVEERWLRKPERIVI”, which “soluble on expression in E. coli” value is on record?
**A.** not soluble

**Q.** With “SLNKIKAFYNLPMAYYRLSNFLKHYIDDNTIIICIGTDRCIGDCLGPMVGTMLKEKFFPLNVYGTISEPIHALNIDKKLYKIKKDHTNSTIIGIDACLGDTENIGEIQVRDYAIHPGKGVGKSLPDVGEVSIVGIVDSCESSELFTNRNIRLNLIFEMSKVIVQTIIHSYYLHKTFSDSIFPDSASTLK” as the sequence, how does the “soluble on expression in E. coli” value read?
**A.** soluble

**Q.** For “SLPHPAPGPADAEDPRLAEVMAAVRSSRRYQSVAPETVRRLAANALVASRGDLAEAVKRTKRSLHEVFGAYLPSPPKYDALLRQLRDAVDAGDDEAVRAVLHRAMSTHASTRERLPILEEFYREVFARLDAPTSVRDLACGMNPLAAPWMPGSDAFTYHASDIDTRLTEFLAAALETLGVAHDVRVRDLMTGVGEVATDVTLLLKTLPCIEAQGRGQGWDLIDAIRSPVVVVSFPTKSLGQRSKGMFNTYSANFGAWLENRPHDVEQVEFRNELVYFVRKNA”, which “soluble on expression in E. coli” value is on record?
**A.** soluble

**Q.** For “SLPVINGAHVISMKNYTLVSDAYGEKGVKKVYEDEYLICENLKSFNKNLHPNFNFACFCLFDGHNGKNTAMFLKRNLAQELSNSFLEMQNTYDSSLPIPDHFIKISVNNTCKRIDERIAQEYPNSRDGATCVIVLIKDEYAYIINIGDSCAYLCRYLNNSNQAIELVDIHKPWVITEKERIIKHGGTIENGRVNDIIDVTRSFGDLSLKKYGLLCTGTFKKFKINSDDNFIILGTDGFFGSVDINYVINEITNLSKKEERLVNVEKKKTVFDAKSICNIMVEHAIVDKKSQDNVTVVLIKFLHKKGNSSTTTTTTEIRLLTKPERKLSWLLPPLSNN”, which “soluble on expression in E. coli” value is on record?
**A.** soluble

**Q.** With “SLRKERARSAEEPWTQNQQKLLELALQQYPRGSSDCWDKIARCVPSKSKEDCIARYKLLV” as the sequence, how does the “soluble on expression in E. coli” value read?
**A.** soluble

**Q.** For “SLRQDELKELERAIAEITEIAEGFGLDFYPMRYEICPADILYTFGAYGMPTRFSHWSFGKQFYKMKLHYDLGLSKIYELVINSDPCYAFLLDTNTLIQNKLIVAHVLAHSDFFKNNVRFSNTKRDMVESMAATAERIKHYEHQYGKLEVEKFLDAVLAIQEHIDPSLLRPKLSWTWEDTEVYEEEEPPKTSTPYDDLWSLDERDKLKTPPRKKRRKFPPQPEKDVLLFIEEYSRELEDWQRDILTMMREEMLYFWPQLETKIMNEG”, which “soluble on expression in E. coli” value is on record?
**A.** not soluble

**Q.** With “SLRTYFAQRAEMEQLAATEAMLRRQIADLEEQQVKLADPAYIAAQARERLGFVMPGDIPFQVQLPSTPLAPPQPGSDAATATNNEPWYTALWHTIADDPHLPPAAPPAPEPGRPGPLPPASPNPEQPGG” as the sequence, how does the “soluble on expression in E. coli” value read?
**A.** soluble

**Q.** For “SLSFSSKVKSEVCRYDDYSKGEAIAVLSAVMKASGTLALEGNRKISFKIITENPAIARLIFKLLKKYFDIHTEIMMKKSNSLKKNNVYVVSITEDMGVRELLKTVGVMKNEDGIVTLSYDIPEFVVKDDESRKMYIRGAFLGGGSVSNPEKMYHLEFVTHNEDYASNLRDLINTYGLNSKVIQRKNSYVVYIKEGEQVVDLLNIIGAHSSLLELENIRIIKEMRNNINRLVNCETANLSKTVNASVRQIESIKLIEKQIGLSRLPENLREVAKLRLNYPDESLKELGKMLEPPVGKSGVNHRLRKIEKIAEELRKEGR”, which “soluble on expression in E. coli” value is on record?
**A.** soluble

**Q.** Which “soluble on expression in E. coli” value does the source give for “SLSPKFKTIIIDDIPSCVEDIKKIILKDKRFEVVATASNGLEGVDQIRLHNPDLVLTDIEMPVMNGFDMVIGLREMLDLTPTIIFITVYDQYAIQAIRCSAFDFILKTGLDQELPMALNEYVKKRAAKQPLLSKQIESLIKSFERNKQIIIRSNICDNFINPMDIIYISTSKNHANSIYLKNGECIATNQSLSHFEKILSETDFFRLNKSNIININFIKEIRKETNAFRRKYVYMKYTEADIKLAIPPGKYAKLFDFIEENSSEG” here?
**A.** not soluble

**Q.** Which “soluble on expression in E. coli” value does the source give for “SLSTVELSGTVVKQGYLAKQGHKRKNWKVRRFVLRKDPAFLHYYDPSKEENRPVGGFSLRGSLVSALEDNGVPTGVKGNVQGNLFKVITKDDTHYYIQASSKAERAEWIEAIKKLT” here?
**A.** soluble

**Q.** With “SLTDSAAPRLHVQALSADCAEAARRWAERLGLPLEADDEAEFAVQVGEQGLQVLQLGADSPGPVRVDFVEGASAHRRKFGGGSGQMIAKAVGVQPGIRPRVLDATAGLGQDGFVLASLGCEVTLVERQPLIAALLEDGLERARRDPDVAPIAARMRLLGGNSADLMRAWDGEAPQVIYLDPMFPHRDKSALVKKEMRLFRPLVGDDLDAPALLQAALALASHRVVVKRPRKAPIIEGPKPGYSLEGKSSRYDIYPKKALGK” as the sequence, how does the “soluble on expression in E. coli” value read?
**A.** soluble

**Q.** For “SLVGTPNLLTLDEADATWTLIKDKVIEEHFGPNAVAVPFLSDAACYDLLGVLVKQSRPAHTRLALPGRQGRRALKPVGPLPSLLEQAGSEGAFAHCTREYSPNGRAERAYEETRMLDGQPCKIRLHMGDLRKKVAFLLLPPGQVSLQQTLPWLRSTHSIYVIYQVFSCSWLQLGLTSTAREPQLLRLLRSLPVAFSCLKFSLQSKGVLGPQKPLTKDPLPHGANWVRPNLSIMPPLAPTSASADTTEAADVPPPVPAPPTPPPQEGPEDKPTRFSYKGRNPFWRGPQILSENWLFSPRSPPPGAQGGGPRDPDGHSMSLPLLQGLSSEFDSDD”, which “soluble on expression in E. coli” value is on record?
**A.** not soluble

**Q.** Which “soluble on expression in E. coli” value does the source give for “SLVVAIDPGHGGQDSGAVGPTGKLEKNVTLAIGRELARQINATPGMKAYMTRDSDVFIPLPMRAQRARAAKADIFISIHADAADNRAATGSSVYVLSTRGASSQRARWLADKENAADLVGGVRLQKAEPTLANVLLDLAQSGYMKASEDAADHVLGSLKRVANNHKSEVEHANFAVLRTSDMPAMLVETAFISNAYEERRLVDPAFQRQLAAAVLEGVITFFTNQPPPGTLFALRAQAEPATTGGSVITSTH” here?
**A.** not soluble

**Q.** With “SLYCIEEKIEKALGIKEASLVLKNCNIVNVFSSEIIRGDLAIDGDTIIGIGKYKGKTEIDLSNKYVAPGFIDSHVHIESSMVSPKEFARAVISRGTTTIIVDPHEIANVCGMDGIKYMMEETKNMPLDVFFMLSSCVPATSFETSGAVLKAEDLKELIDSDRVLGLGEMMNYPGVLSREEEVLNKLKLAGSYNKIVDGHAPSVRGNELNAYNLAGIKTDHECSSIEEMNEKIRNGMYIAIREGSAAKNLDILIKGVNAKNERRIMFCADDRHPDDILKSGHMDNCVRRAIYNGIENTAAIRMASINAAECYKLERVGAIAPSYKADLVVLEDLKDVKVNMVIKSGEVVFKDNKHLKDMGSKSDITKVSNTVNIKKVSEENLELKLDTDVCSIISVALNSISTKNVKRKVNLSNGIFKCELNYGINKVAVIERHKKSGSIGIGLVENFGLKRGAIASTVAHDSHNIIVLGNNDEDMVKAVNEIERVGGGITISLDGKIIETLELEIAGLMSNKSMEFVAERVSKMINICHNTLGVNKDIQPFMTLAFLALPVIPEIRITDKGVFDVVNFKFL” as the sequence, how does the “soluble on expression in E. coli” value read?
**A.** soluble

**Q.** Which “soluble on expression in E. coli” value does the source give for “SMAAAAVVQIPAGATFLETFKKSFVDVPIDAEKGNAISTAEFLEAAESLTTMFDVLGSIAFSPVKTDMLGNVEKIRKRMLAAPLESQNIQDLVRNELKTKSHTATEGLLWLVRGLEFTCIALSKNIGSTEELADSFRGSYRVTLKPHHSFLVKPIFSAAMSACPYRKDFYAKLGDDEQKVQEELREYLVALDKIVNILKRFLESKEAKW” here?
**A.** soluble

**Q.** With “SMATKIDKEACRAAYNLVRDDGSAVIWVTFKYDGSTIVPGEQGAEYQHFIQQCTDDVRLFAFVRFTTGDAMSKRSKFALITWIGENVSGLQRAKTGTDKTLVKEVVQNFAKEFVISDRKELEEDFIKSELKKAGGANYDAQTE” as the sequence, how does the “soluble on expression in E. coli” value read?
**A.** soluble

**Q.** With “SMDSRLQRIHAEIKNSLKIDNLDVNRCIEALDELASLQVTMQQAQKHTEMITTLKKIRRFKVSQVIMEKSTMLYNKFKNMFLVGEGDSVLEVLFQ” as the sequence, how does the “soluble on expression in E. coli” value read?
**A.** soluble

Reference: the DeepSol protein solubility set
